Experimental data: the nanobody polyreactivity screen of Harvey et al. (2022)

Experiment: yeast display, Sf9 membrane polyspecificity reagent, FACS + sequencing; frameworks hold sequencing errors
Procedure, shortened: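 Genes from sorted yeast were amplified by colony PCR, read by MiSeq 2 × 250 sequencing and filtered on CDR length. These cells carried a synthetic nanobody library in Saccharomyces cerevisiae BJ5465 and were sorted by FACS into low and high (top ~1%) gates on anti-HA and streptavidin fluorescence. Polyreactivity is labelled according to the gate of origin.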

Sequence	polyreactivity (PSR sort gate)
QVQLVESGGGLVQAGGSLRLSCAASGSIFSKYVMGWYRQAPGKERELVAAISWSGTRTYYADSVKGRFTISRDNAKNTVYLQMNSLKPEDTAVYYCAARRPVRVPGQYDYWGQGTQVTVSS	high polyreactivity
QVQLVESGGGLVQAGGSLRISCAASGSTFWYYAMGWYRQAPGKERELVAAINSDDSTNYADSVKGRFTISRDNAKNTVYLQMNSLKPEDTAVYYCNRGFVYSTTGLWRYYDFDYWGQGTQVTVSS	low polyreactivity
QVQLVESGGGLVQAGGSLRLSCAASGRILYVNTMGWYRQAPGKERELVAGITSRVGSTYYADSVKGRFTISRDNGKNTVYLQMKSLKPEYTAVYYCNARSTWRHRRDQVDFDYWGQGTQVTVSS	low polyreactivity
QDQLVESGGGLVQAGGSLRLSCAASGSIFTYNAMGWYRPAPGKERELVAAINTSGSTNYADSVKGRFTISRDNAKNTVYLQKYSLKPEDTAVYYCAAGIVVTVYDYWRQGTQVTVSS	low polyreactivity
QVQLVESGGGLVQAGGSLRLSCAASGYNFHDYAMGWYRQAPGKERELFAAISKRGGSTYYADSVKGRFTISRDNAKNTVYLQMNSLKPEDTAVYYCAKGGPHRGTGLNDYWGQCTQVTVSS	high polyreactivity
QAQLVESGGGLVQAGRSLRLSCAASGSTFRWYAMGWYRQAPGKERELVAAITSSGSTYYADSVKGRFTISRDNAKTTVYLQMNSLKPEDTAVYYCAARANGYWNTYEHDYWGQGIQVTVSS	low polyreactivity
QVQLVESGGGLVQAGGSLRLSCAASGSIFGINAMGWYRPAPGKERQLVAAISGSTSRSYYADSVKGRFTISRDNAKNTVYLQMNSLKPEDTAVYYCAVVGLRSVTRRSYYWGQGTQVTVSS	high polyreactivity
QVQLVESGGGLVQAGGSLRLSCSASGSTFEKNAMGWYRQAPGKERELVAAISNGVSTYYADSVKGRFTNSRDNAKNTVYLKINSLKPEDTAVYYCAAVLFFGAETVYYDKFDYWGQGTQVTVSS	low polyreactivity
QVQLVESGGGLVQAGGSLRLSCAASGSIFGRNAMGWYRQAPGKERELVAGMFYADSEKGRFTISRDNAKNTVYLQMNSLKPEDTAVYYCNADGTTDISNDNWYGYWGQGTQVTVSS	low polyreactivity
QVQLVESGGGLVQAGGSLRLSCAASGSTFDYYSMGWYRQAPGKERELVAAISYSGSRTYYADSVKGRFTISRDNAKNTVYLQMNSLKPEDTAVYYCAARRGYVKGKTYDYWGQGTQVTVSS	high polyreactivity
QVQLVESGGGLVQAGGSLRLSCAASGFTFVRNAMGWYRQAPGKERELVAAISGSGGRTYYADSVKGRFTISRDNAKNTVYLQMNSLKPEDTAVYDCNTASAYEYEYWGQGTQVTVSS	high polyreactivity
QVQLVESGGGLVQAGGSLRLSWAASGRIFIGYPMGWYRQAPGKERELVAAISRNGDNTYYADSVKGRFTISRDNAKNTVYLQMNSLKPEDSAVYYCAAVAYPREWKLSYEDGSWGYDYWGQGTQVTVSS	low polyreactivity
QVQLVESGGGLVQAGGSLRLSCAASGFTFVGNAMGWYRQAPGKARELVAAIRWTDGSTYYADSVKGRFTISRDNAKNTVYLHMNSLKPEDTAVYYCAKDYRDYARAGDYNVKQADDYWGQGTQVTVSS	low polyreactivity
QDQLVESGGGLVQAGGSLRLSCAASGLTFQYNTMGWYRQAPGKERELVARINWGGDSTYYADSVKGRFTISRDNAKNTVYLQLYSLKPEVTAVYYCAAPGYSGRYGYYTYYLYVYWGQGTQVTVSS	low polyreactivity
QVQLVESGGGLVQAGGSLRLSCAASGSIFLYARGWYRQAPGKERELVAAINRRGGSTYYADSVKGRFTISRDNAKNTVYLQMNSLKPEDTAVYYCAVVYLLPRYWWRYDYWGQGTQVTVSS	low polyreactivity
QVQLVDSGGGLVHAGGSLRLSCASSGSIFNYYAMGCYRQPPGKVRELVAAISYRTGSTYYADSVKGRFTISRDNAKNTVYLQMTSLKPEDTSVYYCAADTRYGYGYWGQGTQVTVSS	high polyreactivity
QVQLVESGGALVQAGGSLRLSCAASGFIFGSYVMGWYRQAPGKERELVAAISQIGGRTYYADSVKGRFTISRDNAKKTVYLQMNSLKPEDTAVYYCAARWAGYRYVGGYWRDDMDYWGQGTQVTVSS	high polyreactivity
QVQLVESGGGLVQAGGSLRLSCAASGSTFRTYAMGWYRQAPGQERELVAASDSSGGNTYYADSVKGRCTISRDPAKNTVYLQMNSLKPEDTAVYYCARESVTYFWYYTPEVDYWGQGTQVTVSS	low polyreactivity
QVQHVESGGGLVQAGGSLSLSCAASGFIFSAYAMGWYRRAAGKERKLVDAITRSGGITDYADSVKGRFTISRDIAKNTVYLQMNSLKPEDTADYYCAALRVQQVKSYYYWGQGTQVTVSW	high polyreactivity
QVQLVESGGLLVQGGVSLRLSCAASGSTLYIYAMGWYRQAPGKERELVAANTWSGGRTFYADSVKGRFTISRDNAKNTVSLQMNSLTPEDTAVYYCAARILSDKTGSRYYYWGQGTQVTVSS	high polyreactivity
QVHLEESGGRLVQEGGSLRISCAASGSILRSYAMGWYRQAPGKERELVAVINRGTSTNYADSVKGRFTISRDNAKNTVYLQMNSVKPEDTAVYYCAVAVLPWQLDSESYAEYDYWGEGTQVTVSS	low polyreactivity
QVQLVESGGGLVQAGGSLRLSCAASGSTLQSYAMGWYRQAPGKERELVAGIRISGGNTRYADSVKGRFTISRDNAKNTVYLQMNSLKPEDTAVYYCAALTGFYNLRPYGYWGQGTQVTVSS	high polyreactivity

Sequence	polyreactivity (PSR sort gate)
QVQLVESGGGLVQAGGSLRLSCAASGSTFDYNAMGWYRQAPGKERELVATISSSVGSTYYADSVKGRFTISRDNAKNTVNLQMNSLKPEDTAVYYCNSDYVAYGPEYDYWGQGTQVTVSS	low polyreactivity
QVQLQERGGGLVQAGGSLRLSCAASGSIFHYTQMGWYLQAPGKEREFVAAITDGANTNYADSVKGRFTISRDNAKNTVNLQMNSLIPEDTAVFYCATDYGYTDRVTSGFDYWGQGTQVTVSS	low polyreactivity
QVQLVESGGGLVQAGGSLRLSCAASGFTLAYYAMGWSRQAPGKERELVAAISWSGDTTYYADSVKGRFTISRDNAKNTVYLQMNSLKPEDTAVYYCAADYYLWGQGTQVTVSS	high polyreactivity
QVQLVESGGGLVQAGGSLRLSCAASGRTFFIYAMGWYRPAPGKERELVAAITYGGGRTFYADSVKGRFTISRDNAKYTVYLQMNSLKPEDTAVYYCAATVRGKRSTYDYWGQGTQVTVSS	high polyreactivity
QVQLVESGGGLVQAGGILRLSCAASGYTFYFYAMGWYRQAPGKERELVAAITGGGTTSYADSVKGRFTISRDNAKNTVYLQMNSLKPEDTAVYYCNVLFADKSDYWGQGTQVTVSS	low polyreactivity
QVQLVESGGGLVQAGGSLRLSCAASGSIFNYNTMGWYRQAPGKERELVADISWSGGSTYYADSVKGRFTISRDNAKNTVYLQMNSLKPEDTAVYYCAADFGLFPYVGTGYYYWGQGTQVTVSS	low polyreactivity
QVQLVESGGGLVQAGGSLRLSCAASGFTFQLYAMGWYRQAPGKERELVAAISSSGTSTYYADSVKGRFTISRDNAKNTVFLQMNSLKPEDTAVYYCAARGPYTYRRYGYWGQGTQVTVSS	high polyreactivity
QVQLVESGGGLVKAGGSLRLSCAASGRTFRDNAMGWYIQAPGKERELVADIDIDSSTYYADSVKGRFTISRDNAKNTVYLQMNSLKPEDTAVYYCAATFTYLGYWYDYWGQCTQVTVSS	low polyreactivity
QVQLVESGGGLAQAGGSLRLSCAASGSTFLYYAMGWYRQAPGKERELVDAIDSGGSTYYADSVKGRFTISRDNAKNTVYLQMNSLKPEDTAVYYCNADFADHWPPNGPGAHDYWGQGTQVTVSS	low polyreactivity
QVQLVESGGGLVQAGGSLRLSCAASGRIFGRYAMGSYRQAPGKERELVAGINSGSTSYADSVRGRFTISRDNAKNTVYLQMNSLKPEDTAVYYCARGPRYRGGWDTFRGFDYWGQGTQVTVSS	low polyreactivity
QVQLVESGGGLVQAGGTLRLSCAASGSIFANYAMGWYRQAPGKERELVASISSGDSTNYADSVKGRFTISRDNAKNTVYLQMNSLKPEDTAVYYCASTFVGGIWSGYNYWGQGTQVTVSS	low polyreactivity
QVQLLESGGGLVQAGGSLRLSCAASGRNFGVNAMGWYRQAPGKERELVAVISSGGSTYYADSVKGRFTISRDNAKNTVFLQMNSLKPEDTAVYYCAAGNLPDYDYWGQGTQVTVSS	low polyreactivity
QVQLVESGGGLVQAGGSLRLSCAASGRIFNRYAMGWYRQAPGKERELVAAISSRGGSTFYADSVKGRFTISRDIAKNTVYLQMNSLKPVDTAVYYCATAWHRGVRGRTSGAFDYWGQGTQVTVSS	high polyreactivity
QVQLVESGGGLVQAGGSLRLSCAASGSIFGGYAMGWYRQAPGKERELVARITDRGGSTDYADSVKGRFTISRDNAKNTVYLQMNSLKPEDTAVYYCAKRGDRYEKRPRDYWGQGTQVTVSS	low polyreactivity
QVQLVESGRGLVQAGGSLRLSGAASGITQDDYDMGWSRQAPGKQRELVAAITSGGSTNYAHSVKGRFTNSRDNATNTVYLQMNSLKPEDTAVYYCAADTARTRIFDYWGQGTQVTVSS	low polyreactivity
QVQLVESGGGLVQAGGSLRLSCAASGRIFSPYAMGWYRQAPGKERELVAAISYDDGITYYADSVKGRFTISRDNAKNTVYLQMNCLKPEDTAVYYCAADSVTRPAGDYWGQGTQVTVSS	low polyreactivity
QVQLVESGGGLVQAGGSLRLTCAASGRIFIGNAMGWYRQAPGKERELVAAISSGGSTDYADSVKGRFTISRDNAKNTVYLQMNSLKPEDTAVYYCNADYEGYYDYGYWGQGTQVTVSS	low polyreactivity
QVQLVESGVRLVQAGGSLRLSCASSAITFGKNAMGWYRQAPGTESELVAAITRDGGTNYADSVKGRFTISRDNAMNTVYLHMNILKPEDTAVYYCAKRAYIYYGRYDYWGQGTQVTVSS	low polyreactivity
QVQLVESGGGLVQAGGSLRLSCAASARIFGWNSMGWYRQAPGKERELVAAISWRGGSTYYADSVKGRFTISRDNAKNTVYLQMNSLKPEDTAVYYCNALYTRYVSQWFGYWGEGTQVTVSS	high polyreactivity
QVQLVESGGGLVQAGGSLRLSCAASGSIFFPYAMGWYRQAPGKERELVAAISWRGGITYYADSVKGRFTISRDNAKNTVYLQMNSLKPEDTAVYYCAADGPYTGDGALDYWGQGTQVTVSS	high polyreactivity
QVQLVESGGGLVQAGGSLRLSCAASGRTFSRNAMGWYRQAPGKEREFVASISRSGTSTYYADSVKGRFTISRDNAKNTVYLHMNSLKPEDTAVYYCAKTYASSQGYDYWGLGTQVTVSS	high polyreactivity
